In this test the target is Ab126 antibody. As to the kind of experiment: direct competition ELISA: 0.1 µg recombinant PCNA on plate, peptide UMPB6 (0.024-2400 ng/well) mixed with Ab126, anti-rabbit IgG-AP, OD 405 nm. On the technique in general: An ELISA detects its analyte on a solid surface through an enzyme-linked reagent.

For LGIPEQEY [antigenic peptide UMPB6 (equivalent to PCNA amino acids 126-133)], the IC50 amounted to 0.1 µg/mL.

By IC50 is commonly meant the concentration that inhibits the measured activity by half.
